In paper PMC3081413:
Each block holds one substance with its values, some of them ahead of it.

Legend:
[1] = target: GST-IκBα (1–317) (UniProt P25963)
[2] = target: Full-length hIKKβ (1–756) (human) (UniProt O14920); assay: SEC
[3] = target: WT IKKβ (hIKKβ, parent of the purified dimerization mutants of Figure 5c) (human) (UniProt O14920); assay: AUC
[4] = target: hIKKβ KD-ULD-SDD region (1–678) (human) (UniProt O14920); assay: SEC
[5] = target: hIKKβ W655D/L658D, purified (human) (UniProt O14920); assay: AUC

Sequence of UniProt P25963 (P25963 whole entry): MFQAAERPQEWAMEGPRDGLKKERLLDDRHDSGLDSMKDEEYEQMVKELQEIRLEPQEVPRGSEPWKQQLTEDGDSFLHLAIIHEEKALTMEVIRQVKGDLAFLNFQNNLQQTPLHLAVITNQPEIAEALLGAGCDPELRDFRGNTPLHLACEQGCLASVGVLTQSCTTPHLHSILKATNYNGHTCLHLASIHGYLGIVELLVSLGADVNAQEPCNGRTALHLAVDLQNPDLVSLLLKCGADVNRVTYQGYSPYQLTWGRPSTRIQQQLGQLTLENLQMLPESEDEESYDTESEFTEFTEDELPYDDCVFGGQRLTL

relative Vmax of phosphorylation of full-length IκBα by IKKβ EE [1]: 502 a.u.
stoichiometry N [2]: 2
Substance: Full-length hIKKβ (1–756) (from UniProt O14920 1-756) (enzyme)

stoichiometry N [3]: 2
Substance: WT IKKβ (hIKKβ, parent of the purified dimerization mutants of Figure 5c) (from UniProt O14920 1-756) (enzyme)

stoichiometry N [4]: 2
Substance: hIKKβ KD-ULD-SDD region (1–678) (from UniProt O14920 1-678) (domain or fragment)

fold weaker dimerization affinity than WT [5]: 167 fold
Substance: hIKKβ W655D/L658D, purified (from UniProt O14920 1-756) (enzyme)
